Substrate in data set [1]: CC1(C)S[C@@H]2[C@H](NC(=O)CCC[C@@H](N)C(=O)O)C(=O)N2[C@H]1C(=O)O
The data set is described as follows: Kinetics of recombinant enzyme (Lineweaver-Burk). It is filed as biochemical, Streptomyces clavuligerus. As to conditions: other: recombinant enzyme, pH 7.0, 50 mM HEPES buffer, 36° C.
Description: The kinetics of the native enzyme and recombinant enzyme were determined under the optimal reaction conditions for the enzyme, i.e., at pH 7.0 in 50 mM HEPES buffer at 36° C.

Substrate in data set [2]: O=C(O)CCC(=O)C(=O)O
Description: purified protein, by the assay type. The following applies: 36° C.

Substrate in data set [3]: CC1(C)S[C@@H]2[C@H](NC(=O)CCC[C@@H](N)C(=O)O)C(=O)N2[C@H]1C(=O)O
Description: Kinetics of native synthase, partially purified (Mono Q eluate). The following applies: other: native partially purified enzyme, Tris-HCl buffer, 36° C., pH 7.0. The format is biochemical, Streptomyces clavuligerus.

B1: recombinantly produced DAOC synthase (Streptomyces clavuligerus) (protein)
chain: MDTTVPTFSLAELQQGLHQDEFRRCLRDKGLFYLTDCGLTDTELKSAKDLVIDFFEHGSEAEKRAVTSPVPTMRRGFTGLESESTAQITNTGSYSDYSMCYSMGTADNLFPSGDFERIWTQYFDRQYTASRAVAREVLRATGTEPDGGVEAFLDCEPLLRFRYFPQVPEHRSAEEQPLRMAPHYDLSMVTLIQQTPCANGFVSLQAEVGGAFTDLPYRPDAVLVFCGAIATLVTGGQVKAPRHHVAAPRRDQIAGSSRTSSVFFLRPNADFTFSVPLARECGFDVSLDGETATFQDWIGGNYVNIRRTSKA
notes: made in house; host or cells: Escherichia coli K12 JM109 (plasmid pOW382)
As to B1, the Km – broadly, the concentration of substrate that gives half-maximal velocity – in data set [1] was 29 µM; in data set [2] (other: recombinant enzyme, pH 7.0, 50 mM HEPES buffer), 18 µM.

B2: native synthase (Streptomyces clavuligerus) (protein)
chain: B1 chain
notes: native synthase, evaluated with the partially purified enzyme; endogenous in cells; host or cells: Streptomyces clavuligerus cells, crude extract, three-step purification (Mono Q eluate)
In the case of B2, the Km in data set [3] came out at 35 µM; in data set [2] (other: native partially purified enzyme, Tris-HCl buffer, pH 7.0), 22 µM.
